Target: T1, Granzyme B (Homo sapiens, UniProt P10144)
T1 construct: purchased Calbiochem 368042
Assay: in vitro protease assay (decomposition by Granzyme B)
Type: biochemical
Settings: Granzyme B 0.05 μg, substrate protein 0.2 μg, 37° C. for 2 hours, SDS-PAGE, Coomassie Brilliant Blue
Method: An in vitro protease assay was carried out to confirm in an experiment whether or not Golgin-160 is decomposed by Granzyme B. Granzyme B, Human, cell culture-derived (Calbiochem, Catalog No. 368042) was purchased, and this product was used as Granzyme B. Granzyme B (0.05 μg) was added to 10 μl of a cleavage buffer containing TRX-Golgin-160, procaspase-3, or TRX-LAG 3 (0.2 μg each) (wherein the buffer consisted of 50 mM Hepes-KOH (pH 7.4), 2 mM EDTA, 1% NP-40, 0.1 M NaCl, and 10 mM DTT) (Kam C. M., Huding D., et al., “Granzymes (lymphocyte serine proteases): characterization with natural and synthetic substrates and inhibitors” in Biochim. Biophys. Acta, 1477:307-323 (2000)). The obtained mixture was incubated at 37° C. for 2 hours. After completion of the incubation, 2×SDS sample buffer (125 mM Tris-HCl (pH 6.8), 4% (w/v) sodium dodecyl sulfate, 20% (v/v) glycerol, 0.01% (w/v) bromophenol blue, and 20% (v/v) 2-mercaptoethanol) was added at an equivalent amount to each reaction solution, and the obtained mixture was heated for 5 minutes. Thereafter, the obtained reaction mixture was separated by SDS-PAGE and then stained with Coomassie Brilliant Blue. Thus, a protein and a decomposition product thereof were observed.

T1 sequence (P10144 21-247): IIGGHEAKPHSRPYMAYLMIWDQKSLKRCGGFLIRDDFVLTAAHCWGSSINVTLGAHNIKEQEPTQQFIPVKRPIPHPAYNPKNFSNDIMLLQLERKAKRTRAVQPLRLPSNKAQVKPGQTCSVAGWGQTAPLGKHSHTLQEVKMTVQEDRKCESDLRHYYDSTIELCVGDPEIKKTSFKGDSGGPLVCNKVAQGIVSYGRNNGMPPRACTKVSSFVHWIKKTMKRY

B1: Procaspase-3: Recombinant Human procaspase-3 (MBL/BioVision), positive control in the in vitro protease assay of Granzyme B (protein, UniProt P42574 1-277, looked up)
pro-form: MENTENSVDSKSIKNLEPKIIHGSESMDSGISLDNSYKMDYPEMGLCIIINNKNFHKSTGMTSRSGTDVDAANLRETFRNLKYEVRNKNDLTREEIVELMRDVSKEDHSKRSSFVCVLLSHGEEGIIFGTNGPVDLKKITNFFRGDRCRSLTGKPKLFIIQACRGTELDCGIETDSGVDDDMACHKIPVEADFLYAYSTAPGYYSWRNSKDGSWFIQSLCAMLKQYADKLEFMHILTRVNRKVATEFESFSFDATFHAKKQIPCIVSMLTKELYFYH
modifications: pro-form
notes: Recombinant Human procaspase-3 (MBL/BioVision), positive control in the in vitro protease assay of Granzyme B
  decomposition by Granzyme B: decomposed
